In the nanobody polyreactivity screen of Harvey et al. (2022):

Assay: yeast display, Sf9 membrane polyspecificity reagent, FACS + sequencing; frameworks hold sequencing errors
In short: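 Galactose-induced (36–48 hours) yeast carrying a synthetic nanobody display library were exposed to 10% biotinylated, detergent-solubilized Sf9 membrane reagent at 4 °C for 1 hour. FACS followed streptavidin microbead enrichment, using low and high (top ~1%) gates for expression (anti-HA) and reagent binding (streptavidin). Colony PCR, MiSeq 2 × 250 sequencing and CDR-length filtering followed. Labels for polyreactivity reflect the gate of origin.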

Sequence	polyreactivity (PSR sort gate)
QVQLVESGGGLVQAGGSLRISCAASGFTFGPYAMGWYRQAPGKERELVAAISQSGGRTSYADSVKGRFTISRDNAKNTVYLQMNSLKPEDTAVYYCAKRAYGYRSIYRMDYWGQGTQVTVSS	high polyreactivity
QVQLVESGGGLVQAGGSLRISCAASGFTFQYYAMGWYRQAPGKERELVATITTSGGNTYYADSVKGRFTISRDNEKNTVYLQMNCLNPEDTAVYYCAARRYRASSRGYGYWGQGTQVTVSS	high polyreactivity
QVQLVESGGGLVQAGGSLRISCAASGFTFSAYAMGRYRQAPGKERELVAAISWSGSRTYYADSVKGRFTISRDNAKNTVYLQMNSLKPEDTAVYYCAKEPYDTFGFYEYDYWGQGTQVNVSS	low polyreactivity
QVQLVESGGGLVQAGGSLRISCAASGFTFSQYAMGRYRQAPGKERELVAAISVSGGTTYYADSVKGRFTISRDNAKNTVYLQMNSLKPEDTAVYYCDARTPFSSSPYVNTSGYYYWGQGSQVTVSS	high polyreactivity
QVQLVESGGGLVQAGGSLRISCAASGFTFSYYAMGWYRQAPGKERDLVAAISGRTGRTYYADSVKGRFTISRDNAKNTVYLQMNSLKPEDTAVYYCAAGYTFSRYDDDYWGQGTQVTVSW	low polyreactivity
QVQLVESGGGLVQAGGSLRISCAASGFTLEPNTMGWYRQAPWKERELVAGISWSGGSTYYADSVKGRFTISRDNAKNTVYLQMNSLKPEDTAVYYCNAPPVRRSIVYDRRDYWGQGTQVTVSS	low polyreactivity
QVQLVESGGGLVQAGGSLRISCAASGFTYSSYAMGWYRQATGKERELVAAISTRGGSTYYADSVKGRFTISRDNAKNTVYLQMNSLKPEDTAVYYCSTGGRGGRRYEYWGQGTQVTVSS	low polyreactivity
QVQLVESGGGLVQAGGSLRISCAASGGIFNYYTMGWYRQAPGKERELVAAINSSGGNTHYADSVKGRFTISRDNAKNTVYLQMNSLKPEDTAVYYCNADARSVWFYRVDYWGQGTQVTVSS	low polyreactivity
QVQLVESGGGLVQAGGSLRISCAASGGIFQRYDMGWYRKATGKERELVAAITRSGGSTYYADSVKGRFTISRDNAKNTVYLQMNSLKPEDTAVYYCAARTYGCYEYWGQGTQVTVSS	high polyreactivity
QVQLVESGGGLVQAGGSLRISCAASGGTFTNYAMGWYRQAPGKERELVAAITDSGATTYYADSVKGRFTISRDNAKNTVYLQMNSLKPEDTAVYYCNAELDLYTDFDYWGQGTQVTVSS	low polyreactivity
QVQLVESGGGLVQAGGSLRISCAASGIIFAYAMGWYRQAPGKERELVAAISGRDGSTYYADSVKGRFTISRDNAKNTVYLQMISLKQEDTAVYFCAAGDYYLQDNYWGQGTQVTVSS	low polyreactivity
QVQLVESGGGLVQAGGSLRISCAASGIILSDNAMGWYRQAPGKEREFVAAITGAGGSTYYADSVKGRFTISRDNAKNTVYLQMNSLKPEDTAVYYCAAESYPLSYSSATLSPSYEYWGQGTQVTVSS	low polyreactivity
QVQLVESGGGLVQAGGSLRISCAASGITFFRNAMGWYRQAPGKERELVATITKSGGSTYYADSVKGRFTISRDNAKNTVYLQMNSLKPEDTAVYDCAAVRRYPVKYVAYDYWGQGTQVTVSS	low polyreactivity
QVQLVESGGGLVQAGGSLRISCAASGITFYFNAMGWFRQAPGKERDLVAVITSVGSTNYADSVKGRFTISRDNAKNTDYIQMNSLKPEDTAVYYCYRTSYVKTPTKRYNYWGQGTQVTVSS	low polyreactivity
QVQLVESGGGLVQAGGSLRISCAASGITFYRYTMGWYRQAPGKERELVAAISRSGSSTYYADSVKGRFTISRDNAKNTVDLQMNSLIPEDTAVYYCASRFGDMGYWGQGTQVTVSA	high polyreactivity
QVQLVESGGGLVQAGGSLRISCAASGITLYGNVMGWYRQAPGKERELVAAISGGSTFYADSVKGRFTISRDNAKNTVYLQMNSLKPEDTAVYYCAAEWYGYGSNVPYYYWGQGTQVTVSS	low polyreactivity
QVQLVESGGGLVQAGGSLRISCAASGLSFYRYTMGWYRHAPGKEREFVAAITAGGSTYYADSVKGRFTISRDNAKNPVYLQMNRLKPEDTAVYYCAPRVLMEQYTYIKYDYWGQGTQVTVSS	high polyreactivity
QVQLVESGGGLVQAGGSLRISCAASGLTFDYYAMGSYRQAPGKERELVAAITSGSITYYADSVKGRFTISRDNAKNTVYLQMNSLKPEDTAVYYCAAKRTSFTARYGYWGLGTQVTVSS	high polyreactivity
QVQLVESGGGLVQAGGSLRISCAASGRIFAQYVMGWYRQAPGKERELVAAISSGGSTYYADSVKGRFTISRDNAKNTVYLQMNSLKPEDTAVYYCAARSRAHRVGRQPFDYWGQGTQVTVSS	high polyreactivity
QVQLVESGGGLVQAGGSLRISCAASGRIFDNYAMGWNRQAPGKERELVAAISVSGDSTYYADSVKGRFTISRDNAKNTVYLQMNSLKPEDTAVYYCAVDPDSYWYLTWADEMYYWGQGTQVTVSS	high polyreactivity
QVQLVESGGGLVQAGGSLRISCAASGRIFFAYAMGWYRQAPGKERELVASITWSGSSTTYADSVKGRFTISRDNAKNTVYLQMNSLKPDDTAVYFCGSDPYFWGYHFRRYGSRGQGTQVTVSS	low polyreactivity
